Laboratory results reported in paper PMC7703752, “Proteome-level assessment of origin, prevalence and function of leucine-aspartic acid (LD) motifs” (Bioinformatics, 2019).
Where no end group is shown, it is not given here. The star is where a group is joined. FITC = O=C1OC2(c3ccc(O)cc3Oc3cc(O)ccc32)c2ccc(NC(=S)*)cc21; Ahx = NCCCCCC(=O)O

Tests used:
rat GIT1 (647-770) [1] = biological target: T1, rat GIT1 (647-770) (rat, UniProt Q9Z272 647-770); assay: fluorescence polarisation + MST; 'additional DA and MST experiments' with GIT1: GIT1 serially diluted (MST from 630 μM, standard capillaries, 25 °C), FITC-Ahx peptide 0.1 μM; 20 mM HEPES pH 7.5, 150 mM NaCl, 2 mM EDTA, 2 mM DTT, Tween-20; conditions: both partners purified
T1 construct: also called GIT1 FAH; GIT1 FAH domain; source: E. coli BL21, expressed as GST-fusion protein (pGex-4T1), purified as described previously (Schmalzigaug et al., 2007)
T1 sequence (looked up): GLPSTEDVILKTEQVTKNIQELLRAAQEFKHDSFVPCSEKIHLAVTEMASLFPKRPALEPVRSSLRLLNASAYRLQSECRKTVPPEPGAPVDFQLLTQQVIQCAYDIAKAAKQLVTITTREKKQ

[2] = biological target: T2, Human α-parvin-CHC (residues 242-372) (human, UniProt Q9NVD7 242-372); assay: fluorescence polarisation + MST; the 'quantitative' methods, summed up in one sentence for each peptide: direct anisotropy (protein serially diluted, FITC-Ahx peptide 0.1 μM; 20 mM HEPES pH 7.5, 150 mM NaCl, 2 mM EDTA, 2 mM DTT, 0.005% Tween-20; room temperature) and MST (protein diluted from 560 μM FAT or 530 μM α-parvin, labelled peptide 0.1 μM, 0.05% Tween-20, 25 °C); ITC in selected cases; conditions: both partners purified
T2 construct: α-parvin, human, C-terminal CH domain, residues 242-372; also called second CH domain of α-parvin; source: E. coli BL21, expressed as GST-fusion protein (pGex 6P1), purified as described previously (Lorenz et al., 2008)
T2 sequence (looked up): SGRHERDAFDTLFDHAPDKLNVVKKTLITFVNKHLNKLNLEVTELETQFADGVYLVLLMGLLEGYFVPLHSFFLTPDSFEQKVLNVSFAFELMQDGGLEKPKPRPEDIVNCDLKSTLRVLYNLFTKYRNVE

[3] = biological target: T3, FAT domain of human FAK (892-1052) (human, UniProt Q05397 892-1052); assay: as above; conditions: both partners purified
T3 construct: focal adhesion kinase (FAK), human, FAT domain, residues 892-1052; 15N-labelled (M9 minimal medium) in the NMR titrations; also called FAK FAT; focal adhesion targeting domain; source: E. coli BL21, expressed as GST-fusion protein (pGexP2), purified as described previously (Arold et al., 2002)
T3 sequence (looked up): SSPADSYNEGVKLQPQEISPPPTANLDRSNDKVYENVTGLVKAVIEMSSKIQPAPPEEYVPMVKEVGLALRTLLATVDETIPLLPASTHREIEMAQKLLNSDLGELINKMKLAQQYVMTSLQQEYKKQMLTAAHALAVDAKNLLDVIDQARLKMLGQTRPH

[4] = biological target: T2, Human α-parvin-CHC (residues 242-372); assay: as above; conditions: both partners purified; remark: listed apart in the source
[5] = biological target: T3, FAT domain of human FAK (892-1052); assay: as above; conditions: both partners purified; remark: listed apart in the source
[6] = biological target: T4, FAT domain of human FAK (892–1052) (human, UniProt Q05397 892-1052); assay: FP
T4 chain: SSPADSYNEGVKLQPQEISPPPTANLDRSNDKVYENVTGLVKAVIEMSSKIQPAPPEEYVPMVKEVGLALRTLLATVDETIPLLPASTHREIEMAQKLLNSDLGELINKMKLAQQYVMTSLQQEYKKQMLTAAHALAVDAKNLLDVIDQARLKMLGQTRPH

[7] = biological target: T5, Human α-parvin-CHC (residues 242–372) (human, UniProt Q9NVD7 242-372); assay: FP
T5 chain: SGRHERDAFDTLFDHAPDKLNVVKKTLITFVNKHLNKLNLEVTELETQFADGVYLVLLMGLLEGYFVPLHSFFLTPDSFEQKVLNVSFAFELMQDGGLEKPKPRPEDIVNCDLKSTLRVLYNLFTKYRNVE

rat GIT1 (647-770) [8] = biological target: T6, rat GIT1 (647-770) (rat, UniProt Q9Z272 647-770); assay: FP
T6 chain: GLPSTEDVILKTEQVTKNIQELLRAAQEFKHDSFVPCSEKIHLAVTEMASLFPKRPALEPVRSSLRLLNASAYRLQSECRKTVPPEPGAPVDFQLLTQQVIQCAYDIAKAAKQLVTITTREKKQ

[9] = biological target: T7, FAT domain of human FAK (892–1052) (human, UniProt Q05397 892-1052); assay: fluorescence polarisation + MST + ITC + other: differential scanning fluorimetry; synthesized peptides against recombinant LDBDs in vitro; direct anisotropy with labelled candidate peptides, anisotropy competition of unlabelled peptides against fluorescently labelled known LD motifs, ITC, MST and DSF summed up together; 25°C, 20 mM HEPES pH 7.5, 150 mM NaCl, 2 mM EDTA, 1 mM TCEP, unless stated otherwise; conditions: both partners purified
T7 construct: focal adhesion kinase (FAK), human, FAT domain, residues 892-1052; 15N-labelled for the NMR titrations; Purification and fate of the GST are told only in the Supplementary Material and in the cited work (Arold et al., 2002); also called FAK FAT; four-helix FAT domain from FAK; source: E. coli BL21, expressed as GST-fusion protein
T7 sequence (looked up): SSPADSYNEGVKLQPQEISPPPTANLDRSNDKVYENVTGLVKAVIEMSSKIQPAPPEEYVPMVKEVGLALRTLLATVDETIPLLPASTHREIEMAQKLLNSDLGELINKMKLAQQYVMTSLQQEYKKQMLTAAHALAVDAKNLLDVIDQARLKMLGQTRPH

[10] = biological target: T8, Human α-parvin-CHC (residues 242–372) (human, UniProt Q9NVD7 242-372); assay: as above; conditions: both partners purified
T8 construct: α-parvin, human, second CH domain (CHC), residues 242-372; Purification and fate of the GST are told only in the Supplementary Material and in the cited work (Lorenz et al., 2008); also called second CH domain of α-parvin; source: E. coli BL21, expressed as GST-fusion protein
T8 sequence (looked up): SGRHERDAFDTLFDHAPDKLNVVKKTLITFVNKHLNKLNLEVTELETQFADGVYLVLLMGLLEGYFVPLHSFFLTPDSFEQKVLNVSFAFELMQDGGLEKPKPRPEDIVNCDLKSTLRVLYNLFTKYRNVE

[11] = biological target: T4, FAT domain of human FAK (892–1052); assay: MST
[12] = biological target: T5, Human α-parvin-CHC (residues 242–372); assay: MST
[13] = biological target: T4, FAT domain of human FAK (892–1052); assay: ITC
rat GIT1 (647-770) [14] = biological target: T6, rat GIT1 (647-770); assay: ITC
rat GIT1 (647-770) [15] = biological target: T6, rat GIT1 (647-770); assay: MST
[16] = biological target: T2, Human α-parvin-CHC (residues 242-372); assay: fluorescence polarisation; direct anisotropy: FAT or α-parvin titrated, FITC-Ahx-labelled LD4 at 0.1 μM; 20 mM HEPES pH 7.5, 150 mM NaCl, 2 mM EDTA, 2 mM DTT, 0.005% Tween-20; room temperature; conditions: both partners purified
[17] = biological target: T3, FAT domain of human FAK (892-1052); assay: as above; conditions: both partners purified
[18] = biological target: T2, Human α-parvin-CHC (residues 242-372); assay: fluorescence polarisation; anisotropy competition assay (ACA): 10 μM FAT or 25 μM α-parvin with 0.1 μM FITC-Ahx-LD4; unlabelled peptide added at 100 and 250 μM; conditions: both partners purified
[19] = biological target: T3, FAT domain of human FAK (892-1052); assay: differential scanning fluorimetry; 10 μM protein, peptide at 100 and 250 μM, SYPRO Orange; 20 mM HEPES pH 7.5, 150 mM NaCl, 2 mM EDTA, 1 mM TCEP; 20 to 95 °C; conditions: both partners purified

B1: RALGAPA1 LD motif peptide, FITC-Ahx-labelled (peptide)
peptide: {FITC-Ahx}-EDVLDELLQYLGVT
notes: core motif 1680-1689; labelled form, used in direct anisotropy and MST; also called RGPA1; source: synthetic peptide, bought: GenScript
Which results are given for B1?
Kd (rat GIT1 (647-770) [1]): ~80 µM; binding result [2]: binds; binding result [3]: binds

B2: C16orf71 LD motif peptide, FITC-Ahx-labelled (peptide)
peptide: {FITC-Ahx}-EAWDLDDILQSLQGQ
notes: Uncharacterized protein C16orf71, human; core motif 267-276; labelled form, used in direct anisotropy and MST; also called CP071; source: synthetic peptide, bought: GenScript
Does B2 bind [4]?
Result: binds

Does B2 bind [5]?
Result: binds

B3: EPB41L5 (Band 4.1-like protein 5) LD motif peptide (peptide)
peptide: ATDELDALLASLTENLID
modifications: also: N-terminal FITC-Ahx only in labelled form
notes: predicted LD motif of human EPB41L5 (Band 4.1-like protein 5); also called E41L5; YMO1; source: synthetic peptide, bought: GenScript
Which results are given for B3?
Kd [6]: 2.7 µM; Kd [7]: 28.2 µM; Kd (rat GIT1 (647-770) [8]): 83.6 µM; binding result [9]: binds; binding result [10]: binds; Kd [11]: 13 µM; Kd [12]: 4 µM; Kd [13]: 6 µM; Kd (rat GIT1 (647-770) [14]): 39.3 µM

B4: RALGAPA1 LD motif peptide (peptide)
peptide: EDVLDELLQYLGVT
modifications: also: N-terminal FITC-Ahx only in labelled form
notes: predicted LD motif of human RALGAPA1; also called RGPA1; source: synthetic peptide, bought: GenScript
For B4, which Kd [6] is on record?
The Kd was 43.6 µM.

And the Kd [7]?
Its Kd is 49.4 µM.

What about the Kd (rat GIT1 (647-770) [8]) of the same binder?
The Kd was 88 µM.

Does B4 bind [9]?
Result: binds

Does B4 bind [10]?
Result: binds

And the Kd [11]?
Its Kd is 42.5 µM.

What about the Kd [12] of the same binder?
Its Kd is 25.7 µM.

What about the Kd (rat GIT1 (647-770) [15]) of the same binder?
Its Kd is 77.5 µM.

B5: paxillin LD4 peptide, FITC-Ahx-labelled (peptide)
peptide: {FITC-Ahx}-SASSATRELDELMASLSD
notes: paxillin, human, LD4 motif with flanking residues; also called labelled LD4; FITC-Ahx-labelled LD4; source: synthetic peptide, bought: GenScript
Which results are given for B5?
Kd [16]: 25 µM; Kd [17]: 10 µM

B6: paxillin LD4 peptide, unlabelled (peptide)
peptide: SASSATRELDELMASLSD
notes: paxillin, human, LD4 motif with flanking residues; form without label, used in ACA, DSF, ITC and NMR; source: synthetic peptide, bought: GenScript
Does B6 bind [18]?
Result: binds

Does B6 bind [19]?
Result: binds
